The record followed here is patent US10077295B2, “Glycoproteins having lipid mobilizing properties and therapeutic uses thereof” (Aston University, priority 2010, dated 2018).

The target of data set [1] is T1, β3-AR (Homo sapiens, UniProt P13945). As to the kind of experiment: [125I] ZAG binding to crude membranes of CHO-K1 β3 cells. More on the design: host or cells: CHO-K1. Here is the method:
[^125I] labelling of ZAG. One iodo bead that had been washed and dried was incubated with Na [^125I] (1 mCi per 100 μg protein) for 5 min in PBS, then ZAG (100 μg protein) was added and left for a further 15 min. The reaction was terminated by removal of the iodo bead, while free Na [^125I] was removed using a Sephadex G25 column eluted with 0.1MNaI. The [^125I] ZAG was concentrated against PBS using a Microcon microconcentrator with a filter cut-off of Mr 10,000. The specific activity of the [^125I] ZAG was 8 Cimg protein^1.
For binding studies cells were sonicated in 2 mM Tris HCl, pH7.5, containing […] and crude total membranes were pelleted by centrifugation (13,000 g; 15 min) at 4° C. Binding studies were carried out at 37° C. by incubating membranes (500 μg protein) in 0.4 ml 50 mM Tris HCl, pH 7.5, containing 0.5 mM MgCl2 for 60 min with various concentrations of [^125I] ZAG (3,000 to 15,000 cpm) in the absence or presence of 100 μM non-labelled ZAG. The membranes were then precipitated by centrifugation at 13000 g for 20 min, the supernatant was removed and the [^125I] bound to the pellet was quantitated using a Packard Corbra Model 5005 Auto-gamma counter. Binding was analysed using non-linear regression analysis (GraphPad Prism, Version 5.04). Specific binding was regarded as the amount of labelled ZAG displaced by non-radioactive ZAG.

The subject of another data set is male Wistar rats. The data set can be described thus: mature male Wistar rats, daily i.v. ZAG for 10 days: body weight, body composition, plasma metabolites. The format is in vivo, rat. Here is the method:
Animal—Rats. Mature male Wistar rats (one year old from our own colony) weighing 540±82.5 g were housed individually and treated once daily i.v., with either ZAG in PBS (100 μl) (50 μg per 100 g body weight), or with PBS (100 μl) as a control. Both food and water intake and body weight were measured daily. Animals were given free access to food (Special Diet Services, Essex, UK) and water ad libitum. The animal experiment was carried out under the welfare conditions imposed by the British Home Office. After 10 days treatment the animals were terminated and the body composition determined. Animals were heated to 80-90° C. for 7 days until constant weight was achieved. The water content was then determined from the difference between the wet and dry weight. Lipids were extracted from the dry carcass using a sequence of chloroform:methanol (1:1), ethanol/acetone (1:1) and diethyl ether (120 ml of each) as described by Lundholm et al (14). The solvents were evaporated and the fat weighed. The non-fat carcass mass was calculated as the difference between the initial weight of the carcass and the weight of water and fat.
Serum Metabolite Determinations. Non-esterified fatty acids (NEFA) were determined using a Wako-ASC-ACOD kit (Wako Chemical GmbH, Neuss, Germany). Triglycerides were determined using a Triglyceride kit (Sigma Chemical Co., Poole, United Kingdom) and 3-hydroxybutyrate by a quantitative enzymatic determination kit (Sigma). Glucose was measured using a glucose analyser (Beckman, Irvine, Calif.) and glycerol was determined enzymatically using the method of Wieland as described in “Methods of Enzymatic Analysis” (Ed. Bergmeyer, H. U.) Vol. 3, pp1404-1409, published by Academic Press, London (1974).

The target in data set [2] is T1, β3-AR. The data set can be described thus: Cyclic AMP production in CHO-K1 cells transfected with β3-AR. The following applies: CHO-K1 β3-AR. Also on record: host or cells: CHO-K1. The format is cell-based. As to the method: Binding Studies and Cyclic AMP Determination. CHO-K1 cells transfected with the human β1- and β2-AR obtained from University of Nottingham, UK, while CHOK1 cells transfected with the β3-AR were obtained from Astra Zeneca, Macclesfield, Cheshire, UK. Gene expression was under the control of hygromycin, together with a β-gal reporter construct, selected for resistance to G418. They were maintained in DMEM supplemented with 2 mM glutamine, hygromycin B ([…]), G418 ([…]), and 10% FCS, under an atmosphere of 10% CO2 in air. To determine the effect of agonists on cyclic AMP production, cells were grown in 24-well plates containing 1 ml of nutrient medium.

Data set [3] relates to rat epididymal adipocytes. As to the kind of experiment: Lipolytic activity in rat adipocytes. The format is cell-based. The following applies: concentrations between 233 and 700 nM. As to the method:
Lipolytic Activity in Rat Adipocytes—White adipocytes were prepared from finely minced epididymal adipose tissue of male Wistar rats (400 g) using collagenase digestion, as described (Beck S A, et al. Production of lipolytic and proteolytic factors by a murine tumor-producing cachexia in the host. Cancer Res 47:5919-5923, 1987). Lipolytic activity was determined by incubating 10^5-2×10^5 adipocytes for 2 h in 1 ml Krebs-Ringer bicarbonate buffer, pH 7.2, and the extent of lipolysis was determined by measuring the glycerol released (Wieland O. Glycerol UV method. Methods of Enzymatic Analysis, edited by Bergmeyer H U. Academic Press, London, pp 1404-1409, 1974). Spontaneous glycerol release was measured by incubating adipocytes alone. Lipolytic activity was expressed as μmol glycerol released/10^5 adipocytes/2 h.

The next data set concerns ob/ob mice. The data set can be described thus: Oral (p.o.) administration of rhZAG to ob/ob mice. The format is in vivo, mouse. As to the method:
50 ug per day of rhZAG was administered p.o. to Aston ob/ob mice. Oral dosing was achieved by assuming 5 mL/day consumption of water, and adding ZAG to achieve 50 ug per day dose based on that assumption. No attempt was made to correct for variations of consumption on a given day.
Experiment One (8 Day Oral ZAG Study): 50 ug of ZAG was administered p.o. daily in drinking water.
Experiment Two (8 Day Oral ZAG Plus Propranolol Study): 50 ug of ZAG administered p.o. daily, with and without propranolol. Propanolol blocks all of the effects of ZAG including decrease in body weight and blood glucose in the tolerance test, also blocking the rise in body temperature and the rise in plasma mouse ZAG, confirming that this occurs through a beta adrenergic receptor. […] It appears to do this by preventing the rise in mouse ZAG in the serum after oral administration of the rhZAG.
Experiment Three (Oral Study): ZAG administered p.o. daily over an extended time frame, with a recovery group split from the treated group beginning at 30 days (data not shown).

Where [4] appears, read: 50 ug p.o. daily in drinking water, 8 days.

Marks after values point to notes of the source that are not given here.

T1 sequence (P13945 whole entry): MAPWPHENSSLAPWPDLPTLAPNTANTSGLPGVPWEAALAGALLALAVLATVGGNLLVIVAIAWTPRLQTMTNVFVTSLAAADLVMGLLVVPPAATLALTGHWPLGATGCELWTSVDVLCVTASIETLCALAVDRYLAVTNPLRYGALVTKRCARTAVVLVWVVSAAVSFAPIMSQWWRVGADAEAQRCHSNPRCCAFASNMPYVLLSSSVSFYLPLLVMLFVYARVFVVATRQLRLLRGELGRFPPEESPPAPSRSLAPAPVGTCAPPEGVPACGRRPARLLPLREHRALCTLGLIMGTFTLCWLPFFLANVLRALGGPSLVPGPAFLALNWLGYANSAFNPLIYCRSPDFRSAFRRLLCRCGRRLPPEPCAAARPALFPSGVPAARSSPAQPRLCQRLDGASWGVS

B1: ZAG: recombinant full length human zinc-α2-glycoprotein (SEQ ID NO: 1) secreted by transfected HEK293F cells; lipid mobilizing factor (protein, listed as Homo sapiens)
chain: QENQDGRYSLTYIYTGLSKHVEDVPAFQALGSLNDLQFFRYNSKDRKSQPMGLWRQVEGMEDWKEDSQLQKAREDMETLKDIVEYYNDSNGSHVLQGRFGCEIENNRSSGAFWKYYYDGKDYIEFNKEIPAWVPFDPAAQITKQKWEAEPVYVQRAKAYLEEECPATLRKYLKYSKNILDRQDPPSVVVTSHQAPGEKKKLKCLAYDFYPGKIDVHWTRAGQVQEPELRGDVLHNGNGTYQSWVVVAVPPQDTAPYSCHVQHSSLAQPLVVPWEAS
With B1, in the data set with β3-AR [1], the “Bmax at β3-AR relative to β2-AR” value was “about three times” and the “Kd at β3-AR, fold lower than that of CGP12177” value is reported as “about 100 fold”. Also, the “effect of freeze-thawing on binding to β3-AR” value with β3-AR [1] (single freeze/thaw cycle) is reported as “eliminated binding”. The “time to significant elevation in body temperature” value in the data set on male Wistar rats (after the first administration) is on record as at most 24 h. In addition, in the data set with male Wistar rats (male rats, after 10 days), the Final weight turned out to be 525 ± 1 g and the Weight change was -5 ± 1 g. Also, the “elevation in body temperature” value in the data set with male Wistar rats (rats) is 0.4 °C. In addition, in the data set on male Wistar rats (rats treated for 10 days), the “Glucose (plasma)” value is listed as 16.2 ± 2.1^c mmol/l, the “Glycerol (plasma)” value is 450 ± 51^c umol/l, the “NEFA (plasma)” value is listed as 0.26 ± 0.06^b mEq/l and the “Trigylcerides (plasma)” value is listed as 1.1 ± 0.09^a mmol/l. In the data set on male Wistar rats (rats, 10 days), the “decrease in plasma levels of NEFA” value is listed as 55%; the “increase in plasma glycerol concentration” value turned out to be 50%; the “reduction of plasma levels of glucose and triglycerides” value is on record as 36-37%. Further, in the data set with male Wistar rats (rats, after 10 days, 50 μg/100 g b.w. i.v. daily), the “decrease in body weight” value was found to be 5 g. The “lowest concentration to stimulate cyclic AMP production” value in the data set with β3-AR [2] is listed as 350 nM. In addition, the “glycerol release from rat epididymal adipocytes” value in data set [3] is recorded as “dose-related increase in glycerol release”. In the data set with ob/ob mice (setting [4]), the “outcome of oral ZAG” value is “weight loss, increase in body temperature and a lowering of urinary glucose occurred”; the “rhZAG in serum after oral administration” value is recorded as “absence of rhZAG in serum”. The “endogenous murine ZAG after oral rhZAG” value in the data set on ob/ob mice (50 ug p.o. daily, 8 days) is “increase in murine ZAG in serum and WAT”. Besides, in the data set with ob/ob mice (p.o. daily, half way through the extended study), the body weight lost turned out to be 13.5%. The “persistence of orally administered rhZAG in the stomach” value in the data set with ob/ob mice (p.o., ob/ob mice) was at least 24 h. The “time before 50% reversion of urinary glucose to control after treatment stop” value with ob/ob mice (recovery group) was found to be 12 days.
